Assay results taken from the nanobody polyreactivity screen of Harvey et al. (2022).

Experiment: yeast display, Sf9 membrane polyspecificity reagent, FACS + sequencing; frameworks hold sequencing errors
How it was run: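 In a synthetic yeast display library (Saccharomyces cerevisiae BJ5465), nanobody expression was induced with galactose for 36–48 hours. FACS gates were set low and high (top ~1%) using anti-HA fluorescence for expression and streptavidin fluorescence for binding of the Sf9 membrane reagent. Each polyreactivity label is drawn from the gate of origin.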

Sequence	polyreactivity (PSR sort gate)
QVQLVESGGGLVQAGGSLRLSCAASGRIFGYYAMGWSRQAPGKERELVATITFGGGSTYYADSVKGRFTISRDNAKNTVYFQMNSLKPEDTAVYYCAADSGYLGIYGDEYSWGQGTQVTVSS	low polyreactivity
QVQLVESGGGLVQAGGSLRLSCAASGIIFAPYAMGWYRHPPGKERELVAAITDSGGSTYYADSVKGRFTISRDNSKNTVYLQMKSLKPEDTAVYYCAVDSNPPDWWAVIYGYWGQGTQVTVSS	low polyreactivity
QVQLVESGGGLVQAGRSLRLSCAASGRIFKYNAMGWYRQAPGKERELVAVITSGGSTYYADSEKGRFTISRDNAMNTDSLQKNSLKQVDTAVYYCNSPYARYYTRYSAYDYWGQGTQVTVSS	low polyreactivity
QVQLVESGGGLVQAGGSLRLSCAASGITFSYNAMGWYRQAPGKERELVAAITWSGDSTYYADSVKGRFTISRDNAKNTVYLQMNSLKPEDTAVYYCNARYLRLRYPYTDEYNYWGQGTQVTVSS	low polyreactivity
QVQLVESGGGLVQAGGSLRLSCAASGRTFLRNAMGWYRPAPGKERELVAAITSSGGRTYYADSVKGRFTISRDNAKNTVYLQMNSLKPEDTAVYYCATDTGWPGRDYWGQGPQVTVSS	high polyreactivity
QVQLVESGGGLVQAGGSLRLSCAASGSIFPYYAMGWYRQAPGKERELVAAINWSGDSTYYADSVKGRFTISRDNAKNTVYLQMNSLKPEDTAVYYCAARSRWRYDYWGQGTQVTVSS	low polyreactivity
QVQLVESGGGLVQAGGSLRLSCAASGITLYRYVMGWYRQAPGKERELVAAISGRGTSTYYADSVKGRFPISRDNAKNTVYLQMNSLKPEDTAVYYCNAEYTKTGALVIPYTYYYAEDYWGQGTQVTVSS	low polyreactivity
QDQLVESGGGLVQAGGSLRLSCAASGSSFFSNAMGWYRPAPGKERELVAAITSTGGSTYYADSVKGRFTISRDHAKNTVYLQMNSLKPEDTAVYYCAAASRRGYYYWGQGTQVTVSS	high polyreactivity
QDQLVESGGGLVQAGGSLSLSCAASGRTFAVYAMGWYRQAPGKEMELVAAITQSGGSTYYADSVKGRFTISRDNAKNTVYLQINSMKPEDTAVYYCAKTGRFPYTAGQSFGYDYWGQGTQVTVSS	low polyreactivity
QVQLVESGGGLVQAGGSLRLSCAASGSIIVRYAMGWYRQAPGKDRELVATITFRDTSTYYADSEKGRFTISRDNAKNTVYLQMNSLKPEDTAVYYCAAVRAVLWDIARYDYWGQGSQVTVSS	low polyreactivity
QVQLVESGGGLVQAGGSLRLSCAASGTYKYYAMGWYRHAPGKERELVAATNRGGSTNYADSVKGRFTISRDNAKNTVYLQMNSLKPEDTAVYYCAAERWYVRGRHYYYWGQGTQVTVSS	high polyreactivity
QVQLVESGGGLVQAGGSLRLSCAASGITLYNYAMGWYRQAPGKERELVAAISLSGGRTYYADSVKGRFTISRDNAKNTVYLQMNSLKPEDTAVYYCAAETDFVWSAPQLAYKVYYWGQGTQVTVSS	low polyreactivity
QVQLVESGGGLVQAGGSLRLSCAASGITNTHYAMGWYRQAPGKERELVAAITSSGRTYYADSVKGRFTISRDNAKNTVYLQMNSLKPEDTAVYYCAAEHSWYYGLLGYWGQGTQVTVSS	high polyreactivity
QVQLVESGGGLVQAGGSLRLSCAASGSTFFRNAMGWYRQAPGKERELVAAISKSGTSTYYADSVKGRFTISRDNAKNNVYLQMNSLKPEDTAVYYCAKYGFCYPQSYAYYYWGQGTQVTVSS	high polyreactivity
QVQLVESGGGLVQAGGSLRLSCAASGITFHDNAMGWYRQAPGKERELVAGSTSGGSTFYADSVKGRFTISRDNAKNTVYLQMNSLKPEDTAVYYCAARRSKYRRGGGYYWGQGTQVTVSS	high polyreactivity
QFQHVESGGCLVQAGGSLRLSSAASGYMFYWYDMGWYRQAPGKERELVAVITSSGLSTYYADSVKGRFTISRDNAKNTVYLQMNSLKPEDTAVYYCNKANTQYSYYFYDYWGQGTQVTVSS	low polyreactivity
QVQLVESGGGLVQAGGSLRLSCAASGSTFPPYAMGWYRQAPGKERELVAAISWSGSGSTYYADSVKGRFTISRDNAKNTVYLQMNSLKPEDTAVYYCAAGYVRVITPAYYYWGQGTQVTVSS	low polyreactivity
QVQLVESGGRLVQAGGSLRLSCSASGFTLIHYAMGWYRQAHGKERELVAGITTSGGSTYYADSVKGRFTISRDNAKNTVYLQMNSLKPEDTAFYYCAAGSTTGQTGKVGYWGQGTQVTVSS	high polyreactivity
QVQLVESGGGLVQAGGSLRLSCAASGSIFRRYAMGWYRQAPGKERELVAAISWRGDSTYYADSVKGRFTISRDNAKNTVYLQMNSLIPEDTAVYYCAADYYRAGRYWGQRHGYDYWGQGTQVTVSS	low polyreactivity
QVQHVESGGGLVQAGGSLRLSCAASGSIYISNAMGWYRQAPGKERELVAAITSSGGSTYDADSVKGRFTISRDNAKNTVSLQMNSLKPEDTAVYYCAARPGRNYYYWGQGTQVTVSS	high polyreactivity
QDQLVESGGGLVQAGGSLRLSCAASGGTFPEYALGWYRQAPGKERELLAAIRTDGRTYYADSVKGRFTISRDNAKNTVYLQMNSLKPEDTAVYYCAADSRYSRPYTWRKAYDYLGQGTQVTVSS	low polyreactivity
QVQLVESGGGLVQAGGSLRLSCAASGRTFKYYTMGWYRQAPGKERELVAAISASGGSTYYADSVKGRFTISRDNAKNTVYLQMNSLKPEDTAVYYCAKGANRAIHKQPTRSRLDSWGQGTQVTVSS	high polyreactivity

Sequence	polyreactivity (PSR sort gate)
QVQLVESGGGLVQAGGSLRLICAGSGLTFPYYTMGWYRQAPGEERELVAAISRRGGSTYYADSVKGRFTISRDNAKNTVYLQMNSLKPEDTAVYYCAADKYSWYDYWGQGTQVTVSS	low polyreactivity
QVQLVESGGGLVQAGGSLRLSCPASGTTIVSNAMGWYRQAPGKERDLVAAISSSGGRTSYADSVKGRFTISRDNAKNTVSLQMNSLKPEDTAVYYCAADHPPGDTYEYWGQGTQVSVSS	low polyreactivity
QVQLVESGGGLVKAGGSLRLSCAASGITFLYYAMACYRQAPGKERELVAAISTSGGSTYYSDSVKGRFTISRDNAKNTVYLQMNSLKPEDTAVYYCAKSVGVGGEDRVGSWGQGTQVTVSS	low polyreactivity
QVQLVESGGGLVQAGGSVRLSCAASGFIFTDNAMGWYRQPPLKERELVAAINLSGTRTYYADSVKGRFTISLDNAKNTVSLQMNSLKPEDTAVYYCNISEDYSYEYWGQGTQVTVSS	low polyreactivity
QVQLVESGGGLVQAGGSLRLSCAASGFIYGPNAMGWYRQAPGKERELVAAISYSGGRTYYADSVKGRFTISRDNAKNTVYLQLISLKPEDSAVYYCAAERKIKYDYWGQGTQVTVSS	high polyreactivity
QVQLVESGGGLVQAGGSLRLSCASSGITFGVYAMGWYRQAPGKERELVAAISRRGAYTYYADSVKGRFTISRDNGKNTVYLQMNSLKPEDTAVYYCAAYLARRQYDYWGQGTQVTVSS	high polyreactivity
QVQLVESGGGLVQAGGSLRLSCAASGLTFHRYAMGWYRQAPGKERELVAAINYSGGRTYYADSVKGRFTISRDNAKNTVYLQMNSLKPEDTAVYYCAASLYRRQMDHWGQGTQVTVSS	high polyreactivity
QVQLVESGGGLVQAGGSLRLSCAASGYIFTYNAMGWYRQAPGKERELVAAISSGGSTNYADSVKGRFTISRDNAKNTVYLQMNSLKPEDTAVYYCAAPVWTYDDYFSYSYSYGYWGQGTQVTVSS	low polyreactivity
QVQLVESGGGLVQAGGSLRLSCAASGSIFYLNAMGWYRQAPGKERELVATISNGGSTNYADSVKGRFTISRDNAKNTVYLQMNSLKPEDTAVYYCATGVIREGDYWGQGTKVTVSS	low polyreactivity
QVQLVESGGGLVQAGGRLRLSCAASGSIFRSNVMGWYIQAPGKEREMVASITSGGITYADSVNGRFTISRDNAQNTVYLQMNSLKPEDTAVYYCDTVRRYAMSPYKGRYDYWGQGTQVTVSS	low polyreactivity
QVQLVESGGGLVQAGGSLRLSCAASGSTFKVYAMGWYRQAPGKERELVAVISGGGRTNYADSVKGRFTISRDNAKNTVYLQMNSLKPEDTAVYYCAAQATYHRYYTYYYWGQGTKVTVSS	high polyreactivity
QVQLVESGGGLVQARGSLRLSCAASGRIFSKYAMGWYRQAPGKERELVAAISSSGVSTYYADSVKGRFTISRDNAKNTVYLQMNSLKPEDTAVYYCYKRTSPKRFDYWGQGTQVTVSS	high polyreactivity
QVQLVESGGGLVQARGSLRLSCAASGSTFSVYAMGWYRQAPGKERELVAAITDVDNTYYADSVKGRFTISRDNAKNTVYLQRNSLKPEDTAVYYCDARYYQYYEYYHWGQGTQVTVSS	low polyreactivity
QVKLVESGGGLVQAGCRLRLSCAASGFICGYNAMGWYRQAPGKERELVAAIDWSGTSTYYADSVKWRFTISRDNAKNTVYLQMNSLKPEDSAVYYCAADTSTWDHTRGYDYWGQGTQVTVSS	high polyreactivity
QVQLVESGGGLVQAGGSLRLSCAASGLIFGNNAMGWYRQAPGKERELVAGIDWSGGSTYYADSVKGRFTISRDNAKNTVDLQMNSLKPEDTAVYYCNAALYVSGHYPNDYWGQGTQVTVSS	low polyreactivity
QVQLVESGGGLVQAGGSLRLSCAASGSIFTYNAMGWYRQAPGKERELVAAITSSSGSSTYADSVKGRFTISRDNAKNTVYLQMNSLKPEDTAVYYCAAPILSFPSPYVQYDYWGQGTQVTVSS	low polyreactivity
QGQLVESGGGLVQAGGSLRLSCAASGFTFAGYARGWYRQAPGKERELVAAINRGGSTYYADSVKGRFTISRDNAKNTVYLQMNSLTPEDTAVYYCAARQEPGWYPDVWWEYDYWGQGTQVTVSS	low polyreactivity
QVQLVESGGGLVQAGGSLRLSCAASGRTFRGNAMGWYRQAPGKEREVVAAISWSGGNTYYADSVKGRFTISRDNAKNTVYLQMNSLKPEDTAVYYCAAGSYWSPYGQSFWPKYDYWGQGTQVTVSS	high polyreactivity
QVQLVESGGGLVQAGGSLRLSCAASGLTFYYYVMGWYRQAPGKEREFVAAISRSGGSTYYADSVKGRFTISRDNAKNTVYLQMNSLKPEDTAVYYCASYTHDFGYKYWGQGTQVTVSS	high polyreactivity
QVQLVESGGRLVQAGGSLRLSCAASGFIFGTYAMGWYRQAPGKEREFVAAITRSGSSTYYADSVKGRFTISRDNAKNTVYLQMNSLKPEDTAVYYCAADLTRGRFRYYYWGQGTQVTVSS	high polyreactivity
QVQLVESGGGLVQAGGSLRLSCAASGSIFPGYAMGWSRQAPEKERELVAAISRRGGSTYYADSVKGRFTISRDNAKNTVYLQMNSLKPEDNAVYYCAKDGTGAGTYDYWGQGTKVTVSS	low polyreactivity
